Experimental data as given in patent publication US20200255527.

Assays:
[1] = target: FH-AGO2-K726R (UniProt Q9UKV8)
[2] = target: FH-AGO2 mono-methylated at K726 (ectopically expressed in MCF-7 cells with LSD1 inhibited) (UniProt Q9UKV8)
Chain of FH-AGO2 mono-methylated at K726 (ectopically expressed in MCF-7 cells with LSD1 inhibited) (Q9UKV8 whole entry): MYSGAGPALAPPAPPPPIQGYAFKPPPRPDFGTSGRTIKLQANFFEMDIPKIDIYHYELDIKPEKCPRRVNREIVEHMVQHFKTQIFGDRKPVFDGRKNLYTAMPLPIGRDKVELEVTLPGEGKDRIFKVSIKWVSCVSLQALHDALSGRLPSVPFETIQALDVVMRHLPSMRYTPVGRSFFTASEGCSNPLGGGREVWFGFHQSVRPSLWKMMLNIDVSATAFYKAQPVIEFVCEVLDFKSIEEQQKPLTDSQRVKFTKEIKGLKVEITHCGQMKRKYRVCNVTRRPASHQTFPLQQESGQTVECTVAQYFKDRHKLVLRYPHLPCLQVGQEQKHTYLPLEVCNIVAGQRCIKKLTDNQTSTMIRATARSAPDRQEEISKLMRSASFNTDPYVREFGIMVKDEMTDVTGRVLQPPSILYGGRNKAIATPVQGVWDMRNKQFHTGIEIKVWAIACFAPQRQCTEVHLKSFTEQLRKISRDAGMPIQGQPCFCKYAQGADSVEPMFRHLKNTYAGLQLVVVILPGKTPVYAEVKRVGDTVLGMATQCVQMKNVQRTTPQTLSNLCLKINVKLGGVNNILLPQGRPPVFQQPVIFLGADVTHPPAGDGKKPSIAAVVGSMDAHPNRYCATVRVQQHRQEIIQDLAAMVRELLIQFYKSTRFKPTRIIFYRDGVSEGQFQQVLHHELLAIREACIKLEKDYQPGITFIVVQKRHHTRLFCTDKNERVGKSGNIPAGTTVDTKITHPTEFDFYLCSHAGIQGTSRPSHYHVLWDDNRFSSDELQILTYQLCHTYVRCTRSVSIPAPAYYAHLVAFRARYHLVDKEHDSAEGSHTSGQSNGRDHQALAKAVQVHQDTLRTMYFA

Chain of FH-AGO2-K726R (Q9UKV8 whole entry K726R): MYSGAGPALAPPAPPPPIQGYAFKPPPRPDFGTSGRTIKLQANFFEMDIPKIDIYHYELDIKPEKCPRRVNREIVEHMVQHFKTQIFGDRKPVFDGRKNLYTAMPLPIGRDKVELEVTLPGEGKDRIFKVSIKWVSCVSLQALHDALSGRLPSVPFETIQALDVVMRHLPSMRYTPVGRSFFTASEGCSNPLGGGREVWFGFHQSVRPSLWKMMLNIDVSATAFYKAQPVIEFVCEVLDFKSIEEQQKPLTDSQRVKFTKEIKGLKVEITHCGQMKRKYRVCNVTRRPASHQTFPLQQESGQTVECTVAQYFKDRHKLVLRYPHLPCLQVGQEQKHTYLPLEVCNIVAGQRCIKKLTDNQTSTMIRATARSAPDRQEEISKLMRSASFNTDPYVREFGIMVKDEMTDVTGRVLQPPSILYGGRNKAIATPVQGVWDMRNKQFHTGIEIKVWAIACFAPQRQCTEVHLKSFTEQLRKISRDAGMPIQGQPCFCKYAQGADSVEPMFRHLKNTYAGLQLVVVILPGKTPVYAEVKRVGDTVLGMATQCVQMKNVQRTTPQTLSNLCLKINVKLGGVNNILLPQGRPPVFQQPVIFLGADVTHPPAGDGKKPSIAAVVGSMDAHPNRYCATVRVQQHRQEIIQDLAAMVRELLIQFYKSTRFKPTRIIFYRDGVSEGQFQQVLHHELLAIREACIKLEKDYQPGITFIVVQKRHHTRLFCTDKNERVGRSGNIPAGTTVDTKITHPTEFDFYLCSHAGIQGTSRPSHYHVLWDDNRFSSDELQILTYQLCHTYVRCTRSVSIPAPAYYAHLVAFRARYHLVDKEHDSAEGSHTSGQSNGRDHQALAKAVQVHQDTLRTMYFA

FH-LSD1 (Flag-HA-tagged LSD1 stably expressed in MCF-7 cells)
K726me1 level in in vitro demethylation assay [1]: had no observable effects on FH-AGO2-K726R | K726me1 level on FH-AGO2 in in vitro demethylation assay [2]: FH-LSD1 but not FH-LSD1-K661A decreased K726me1 level on FH-AGO2

FH-LSD1-K661A (catalytically compromised LSD1)
K726me1 level on FH-AGO2 in in vitro demethylation assay [2]: FH-LSD1 but not FH-LSD1-K661A decreased K726me1 level on FH-AGO2
